Assay results published in patent US9339557B2, “Photosensitizer-metal nanoparticle complex and composition containing the complex for photodynamic therapy or diagnosis” (NATIONAL CANCER CENTER, priority 2009, dated 2016).

Key:
Assay type in all cases: cell-based, human
[1] = system: HT1080 cells overexpressing MMP2; experiment: Fluorescence activation of photosensitizer-metal nanoparticle complex, confocal microscopy; settings: HT1080 (MMP2 overexpressing) compared with BT20 (MMP2 underexpressing); 5 μM equivalent of photosensitizer, 15 hours, 37° C.; Ex. 405 nm, Em. 646-753 nm
Method: HT1080 cells (human fibrosarcoma cell line) overexpressing MMP2 and BT20 cells (human mammary adenocarcinoma cell line) underexpressing MMP2 (see Bremer C. et al., Nature Medicine 7(6) 743-748, 2001) were obtained from ATCC (Manassas, Va.). MMP2-positive HT1080 (90,000 cells) and MMP2-negative BT20 cells (90,000 cells) in culture media were seeded into each wells of LabTek II Chambered Coverglass. Afterwards, the photosensitizer-metal nanoparticle complex solution prepared in Preparation Example 2 was diluted with a culture medium to have 5 μM equivalent weight of the photosensitizer, and added at 600 μl per well. The cells were incubated in an incubator at 37° C. for 15 hours. After the culture medium including the complex was removed, and the cells were washed three times with a fresh culture medium, fluorescence was observed using a confocal microscope (Ex. 405 nm, Em. 646-753 nm).

[2] = system: BT20 cells; experiment: Cell viability after photodynamic therapy (MTT), cell line BT20; settings: 5 μM equivalent of photosensitizer, 15 hours, +PDT laser 670 nm, 40 mW/cm^2, 10 J/cm^2, MTT after 24 hours
Method: 9,000 BT20 cells were seeded in each well of 96-well plates. The next day, the photosensitizer-polypeptide conjugate prepared in Preparation Example 2 and the photosensitizer-metal nanoparticle complex prepared in Preparation Example 2 were diluted with a cell culture medium, thereby preparing an MMP2 probe (MMP2P) solution and a photosensitizer-metal nanoparticle complex (MMP2P-GNR) solution, which have a final concentration corresponding to 5 μM equivalent weight of the photosensitizer. Each solution was added at 200 μl per well to some wells, and the plate was maintained at 37° C. for 15 hours. Meanwhile, for the control group, the same volume of a fresh culture medium in which the photosensitizer was not included was added. Afterwards, the cells were washed twice with a cell culture medium, and for a photodynamic therapy (PDT) group, photodynamic therapy was performed using laser at 670 nm under conditions including a light dose density of 40 mW/cm^2, and a light dose of 10 J/cm^2. After 24 hours, cell viability was measured by MTT analysis.

[3] = system: HT1080 cells; experiment: Cell viability after photodynamic therapy (MTT), cell line HT1080; settings: 5 μM equivalent of photosensitizer, 15 hours, +PDT laser 670 nm, 40 mW/cm^2, 10 J/cm^2, MTT after 24 hours
Method: For in vitro phototoxicity tests 9,000 HT1080 cells were seeded in each well of 96-well plates. The next day, the photosensitizer-polypeptide conjugate (MMP2P) prepared in Preparation Example 2 and the photosensitizer-metal nanoparticle complex (MMP2P-GNR) prepared in Preparation Example 3 were diluted with a cell culture medium, respectively, thereby preparing an MMP2 probe (MMP2P) solution and a photosensitizer-metal nanoparticle complex (MMP2P-GNR) solution, each of which has a final concentration corresponding to 5 μM equivalent weight of the photosensitizer. Each solution was added at 200 μl per well to some wells, and the plate was maintained at 37° C. for 15 hours. Meanwhile, for the control group, the same volume of a fresh culture medium in which the photosensitizer is not included was added to the other wells. Afterwards, the cells were washed twice with a cell culture medium, and for a photodynamic therapy (PDT) group, photodynamic therapy was carried out using laser at 670 nm under conditions including a dose density of 40 mW/cm^2 and a dose of 10 J/cm^2. After 24 hours, cell viability was measured by MTT analysis.

For MMP2P-GNR (CGGPLGVRGK), the fluorescence in cells [1] was “much stronger fluorescence”, the cell viability [2] was 63% and the cell viability [3] was 16%.
